Measured values published in patent EP0531080A2, “Peptide inhibitors of human papilloma virus protein binding to retinoblastoma gene protein” (MERCK & CO. INC., priority 1991, dated 1993).
Where a SMILES comes first, the peptide text is derived from it. Where no end group is shown, it is not given here. [ ]: non-standard residue; d: D form. NMeY = CN[C@@H](Cc1ccc(O)cc1)C(=O)O; NMeL = CN[C@@H](CC(C)C)C(=O)O

Experiments:
[1] = target: T1, HPV-16 E7 protein binding to the RBG protein (Homo sapiens, UniProt P06400); assay: HPV-16 E7 protein binding assay described by R.E. Jones et al.; settings: lowest concentration stated to inhibit
T1 sequence (P06400 1-928): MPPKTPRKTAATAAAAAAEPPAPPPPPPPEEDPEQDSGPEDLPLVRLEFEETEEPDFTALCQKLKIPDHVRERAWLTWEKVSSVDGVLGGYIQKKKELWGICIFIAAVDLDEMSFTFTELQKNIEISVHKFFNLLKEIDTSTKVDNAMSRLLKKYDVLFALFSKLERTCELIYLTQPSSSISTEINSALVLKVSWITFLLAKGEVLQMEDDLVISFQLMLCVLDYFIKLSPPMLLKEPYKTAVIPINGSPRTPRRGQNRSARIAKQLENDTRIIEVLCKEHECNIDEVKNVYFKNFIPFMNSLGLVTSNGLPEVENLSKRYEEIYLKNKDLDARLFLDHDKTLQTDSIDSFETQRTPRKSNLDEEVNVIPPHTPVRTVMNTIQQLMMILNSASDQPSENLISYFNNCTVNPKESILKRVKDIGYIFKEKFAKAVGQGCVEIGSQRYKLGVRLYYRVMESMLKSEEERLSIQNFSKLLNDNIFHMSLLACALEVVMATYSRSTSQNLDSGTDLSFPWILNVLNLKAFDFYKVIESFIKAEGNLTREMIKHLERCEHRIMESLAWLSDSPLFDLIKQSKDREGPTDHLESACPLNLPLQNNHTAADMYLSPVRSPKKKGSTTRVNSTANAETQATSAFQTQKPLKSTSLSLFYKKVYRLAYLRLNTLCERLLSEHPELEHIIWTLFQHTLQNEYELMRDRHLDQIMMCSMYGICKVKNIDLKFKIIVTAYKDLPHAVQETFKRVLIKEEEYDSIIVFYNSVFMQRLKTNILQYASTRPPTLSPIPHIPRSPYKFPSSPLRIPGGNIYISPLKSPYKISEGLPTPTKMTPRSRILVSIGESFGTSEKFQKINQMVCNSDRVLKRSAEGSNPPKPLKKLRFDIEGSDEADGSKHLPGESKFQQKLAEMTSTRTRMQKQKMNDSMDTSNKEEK
Method: Peptides D and E were examined in the HPV-16 E7 protein binding assay described by R.E. Jones et al., The Journal of Biological Chemistry, Vol 265:12782-12785, 1990. This assay measures the binding of the E7 protein to the RBG protein. Peptides D and E inhibited HPV-16 E7 protein binding to the RBG protein at concentrations of Peptide D as low as 20nM and at concentrations of Peptide E as low as 2nM. […] Additionally, Peptide D and Peptide E are themselves antagonists of the HPV E7 protein binding to the RBG protein.

[2] = target: T1, HPV-16 E7 protein binding to the RBG protein; assay: Binding inhibition assay by immune precipitation (Example 2; Hela cell lysate plus radiolabeled E7 from rabbit reticulocyte lysate); set-up: Whole cell lysates of Hela cells were used as a source of human RBG protein; endogenous in cells; host or cells: HeLa whole cell lysate (RB); rabbit reticulocyte lysate, T7 promoter clone (E7)
Method: Peptide A, Peptide B, and Acetyl-GRP 20-27 were assayed for their abilities to inhibit the binding of the HPV-16 E7 protein to the RBG protein. Binding inhibition assays were carried out in vitro using a modification of the procedure described by N. Dyson et al., Science 243: 934-936 1989. Whole cell lysates of Hela cells were used as a source of human RBG protein. Rabbit reticulocyte cell free lysates that permit transcription and translation of exogenously added DNAs served as a source of HPV-16 E7 protein. The HPV-16 E7 gene was added to the rabbit reticulocyte lysate as a recombinant DNA clone under the control of a T7 promoter and incubated for 60 minutes at 30°C in the presence of radiolabeled methionine to allow transcription of the HPV-16 E7 gene and translation into E7 protein that contained radiolabeled methionine. The Hela cell and rabbit reticulocyte lysates were then mixed and incubated at 4°C for 90 minutes. After further manipulations a murine antibody against the RBG protein was added and incubated at 4°C for 60 minutes. Next, a rabbit anti-mouse IgG antibody and protein A sepharose was added to the reaction mixture in order to immune precipitate the RBG protein. At the same time, the E7 protein that was bound to the RBG protein was also precipitated. […] This biochemical protocol yields a quantitative estimate of the binding of HPV-16 E7 protein to the RBG protein in vitro. […]

[3] = target: T2, RBG Protein/E7 (Homo sapiens, UniProt P06400); assay: E7/RB plate binding assay (recombinant E7 on plate, 35S-labeled RBG protein); settings: average of at least two experiments, triplicate; read-out: PLATE ASSAY RBG Protein/E7 IC₅₀
T2 construct: made in house; host or cells: rabbit reticulocyte lysate (in vitro translation of RB)
T2 sequence (P06400 1-928): T1 sequence (P06400 1-928)
Method: (§1) An in vitro solution assay used for the detection of complex formation between E7 protein and p105-RB has been described by Dyson, et. al. (30). Cell lysates used as source of RBG protein were prepared from human T24 bladder carcinoma cells as described (30). C36 and the control antibody Pb416 are monoclonal antibodies directed against RGB protein and SV40 large T protein, respectively. These antibodies were a generous gift from E. Harlow (Cold Spring Harbor Laboratories, Cold Spring Harbor, NY). Immunoprecipitates of E7/RGB protein binding reactions containing serially diluted peptide antagonists were dissolved in 35 µl gel loasing buffer (30). Five µl was counted directly in Right Safe (Beckan, Palo Alto, CA.) scintillation cocktail and 25 µl was subjected to sodium dodecyl sulphate poly-acrylamide gel electrophoresis. Gels were dried and exposed to Kodak X-AR film at -70°C overnight. In order to more rapidly assay large numbers of samples and more easily quantitate the binding results, we developed a plate binding asszy for the detection of E7/RGB protein association. Purified recombinant E7 was resuspended in 0.1 M sodium carbonate, pH 9.5, at 1 ng/µl. Fifty microliters of this solution was placed inot each well of a polyvinyl chloride micortiter plate (COSTAR 2596, Cambridge, MA.). The plate was gently agitated for 18 hours at 4°C. The E7 solution was aspirated off and 100 µl of plate blocking buffer (PBB) [50mM Hepes 7.0, 250mM sodium chloride, 0.1% NP40, 0.5% (w/v) pigskin gelatin, and 0.02% sodium azide] was added pwe well. The buffer was removed and the plate was washed three times in the above buffer without the gelatin (PB). five femtomoles of ³⁵S-methionine (Amersham 100 Ci/mmole, Arlington Heights, IL.) labeled RBG protein prepared in a rabbit reticulocyte lysate was diluted in PB buffer containing various peptide antagonists to a final volume of 50 µl and added to the E7 treated plate. The plate was agsin incubated at 4°C with agitation for 1 hour after which the solution was aspirated and each well washed five times with PB. The top of the plate was removed using a hot wire cutting apparatus (D. Lee, Sunnyvale, CA). Each well eas placed in 3 ml of Ready Safe scintillation cocktail (Beckman, Palo Alto, CA.) and counted for one minute. • 30. Dyson, N. Duffy, L.A., and Harlow, E. (1989) Cancer Cells 7, 235-240 • 31. Merrifield, R.B. (1963) J. Am. Chem. Soc. 85, 2149-2154 • 32. Sakakibara, S., Shimonishi, Y., Kishida, Y., Okada, M., and Sugihara, H. (1967) Bull. Chem. Soc. Japan 40, 2164-2167 • 33. Rivier, J., McClentock, R., and Anderson, H. (1984) J. Chromatogr. 288, 303-328
(§2) IC ₅₀ values represent the average of at least two experiments in which each concentration of inhibitor was tested in triplicate. The varition between experiments was less than 10%. The 50% inhibition concentration are micromolar. ND = not determined. [formula] [formula] [formula] [formula]

[4] = target: T3, RBG Protein/E7 (complex formation between E7 protein and p105-RB) (Homo sapiens, UniProt P06400); assay: E7/RB solution assay (immunoprecipitation, T24 cell lysates as source of RBG protein); type: binding; settings: average of at least two experiments, triplicate; read-out: SOLUTION ASSAY RBG Protein/E7 IC₅₀
T3 construct: Cell lysates used as source of RBG protein were prepared from human T24 bladder carcinoma cells; endogenous in cells; host or cells: human T24 bladder carcinoma cells (whole cell lysate)
T3 sequence (P06400 1-928): T1 sequence (P06400 1-928)
Method: as §1, §2

Compound	IC50 [3] [µM]	IC50 [4] [µM]	also measured
CC(=O)N[C@@H](CC(=O)O)C(=O)N(C)[C@@H](CC(C)C)C(=O)N[C@@H](Cc1ccc(O)cc1)C(=O)N[C@@H](CS)C(=O)N(C)[C@@H](Cc1ccc(O)cc1)C(=O)N[C@@H](CCC(=O)O)C(=O)N[C@@H](CCC(N)=O)C(=O)N(C)[C@@H](CC(C)C)C(=O)N[C@@H](CC(N)=O)C(N)=O [Peptide E] (Ac-D[NMeL]YC[NMeY]EQ[NMeL]N-NH2)	–	–	inhibited HPV-16 E7 protein binding to the RBG protein at concentrations as low as [1]: 2 nM
Ac-DLYCYEQLN-NH2 [Peptide D]	–	–	inhibited HPV-16 E7 protein binding to the RBG protein at concentrations as low as [1]: 20 nM
Ac-LYCYEQLNDSS-NH2 [Peptide C]	–	–	inhibited HPV-16 E7 protein binding to the RBG protein at concentrations as low as ([2]; lowest concentration stated to inhibit): 1 µM
Acetyl-GRP 20-27: last eight amino acid residues of the human gastrin releasing peptide, unrelated to the HPV E7 protein	–	–	effect on HPV-16 E7 protein binding to the RBG protein ([2]; concentrations up to 60 uM): no effect
E7-(14-29)-AMIDE (DLQPETTDLYCYEQLN-NH2; UniProt P03129 14-29, looked up, fragment) [Peptide 7]	0.08	–	–
E7-(18-29)-AMIDE (ETTDLYCYEQLN-NH2; UniProt P03129 18-29, looked up, fragment) [Peptide 8]	0.06	0.4	–
E7-(20-32)-AMIDE (TDLYCYEQLNDSS-NH2; UniProt P03129 20-32, looked up, fragment) [Peptide 1]	0.05	1	–
E7-(21)32)-AMIDE (DLYCYEQLNDSS-NH2; UniProt P03129 21-32, looked up, fragment) [Peptide 10]	11.4	20	–
TDLFCYEQLN-NH2 [Peptide 19, [Phe²³]-E7-(20-29)-AMIDE]	0.06	–	–
[ABU²⁴]-E7-(20-32)-AMIDE [Peptide 17]	–	20	–
[ACM²⁴]-E7-(20-32)-AMIDE [Peptide 18]	–	> 100	–
[G1n27]]-E7-(20-27)-AMIDE (TDLYCYEQ-NH2; UniProt P03129 20-27, looked up, fragment) [Peptide 5]	9.1	50	–
[Ser²⁴]-E7-(20-32)-AMIDE (TDLYSYEQLNDSS-NH2; UniProt P03129 20-32, looked up, variant C24S) [Peptide 16]	–	40	–
